Experimental data: patent US7109167
Values belong to the binder of their own block, whether it stands above or below them. No end group written: not given here. Oregon Green (5-isomer) = Oregon Green fluorescent label, 5-isomer

Assays:
[1] = molecular target: T1, NP-1/Fc (Neuropilin-1/Fc, R&D Systems); assay: competition of 125I-VEGF165 binding to plate-coated NP-1/Fc
T1 construct: Bought reagent; also called Npn-1
Method: An assay buffer consisting of Hank's Balanced Salt Solution (HBSS), 25 mM HEPES, and 0.1% BSA, pH 7.4 was used, and for all experiments, Assay volume per well was 75 µl. Plates (Nunc MaxiSorp white opaque Microtiter plate [C-bottom, 437796]) were coated by incubating the wells with 75 µl of a solution containing 3 µlg/mL NP-1/Fc in D-PBS/0.1% NaAzide overnight at 4° C. after covering with sealing tape (Dynex, VWR Cat. No. 62402-931). The next day all wells, even control wells lacking NP-1/Fc, were blocked 2 hrs with blocking buffer (1% BSA in D-PBS with 0.05% v/v Tween-20) then washed 4× with PBST (D-PBS/0.05% v/v Tween-20) before starting the assay. All points were derived from triplicate wells, and for each set of replicates in NP-1/Fc-coated wells, a companion set in the absence of the receptor was included. […] After addition of the appropriate solutions, microtiter plates were incubated at 4° C. for 2 hours. Following the incubation, plates were hand-washed 5 times with D-PBS containing 0.05% Tween-20 and 0.1% BSA. The plates were blotted dry and 25 µl deionized water and 100 µl scintillation fluid (Optiphase SuperMix, Wallac) were added to each well.

[2] = molecular target: T1, NP-1/Fc (Neuropilin-1/Fc, R&D Systems); assay: fluorescence polarization competition against labeled BRU-326 on NP-1/Fc
[3] = molecular target: T1, NP-1/Fc (Neuropilin-1/Fc, R&D Systems); assay: fluorescence polarization, labeled ligand (5-20 nM) titrated with NP-1/Fc, 37 °C
Method: FP values (mP) for each substrate was measured by titrating the ligand (5–20 nM) with receptor protein using a Jolley Research and Consulting FPM-1 fluorescence Polarization analyzer. In each of these experiments the observed polarization values were plotted against receptor concentration. The mP values for 100% binding of tracer labeled ligand to receptor protein was calculated using the software provided by the vendor.
Figure 3: FIG. 3: Binding of TKPPR (SEQ ID NO: 2) derivatives with NP-1/Fc by Fluorescence Polarization. The indicated Oregon Green-labeled derivatives were incubated with increasing concentrations of NP-1 and polarization was measured. […] Figure 4: FIG. 4: Binding of TKPPR (SEQ ID NO: 2) derivatives with KDR-Fc by FP.

T1 sequence (Q9QWJ9 22-855): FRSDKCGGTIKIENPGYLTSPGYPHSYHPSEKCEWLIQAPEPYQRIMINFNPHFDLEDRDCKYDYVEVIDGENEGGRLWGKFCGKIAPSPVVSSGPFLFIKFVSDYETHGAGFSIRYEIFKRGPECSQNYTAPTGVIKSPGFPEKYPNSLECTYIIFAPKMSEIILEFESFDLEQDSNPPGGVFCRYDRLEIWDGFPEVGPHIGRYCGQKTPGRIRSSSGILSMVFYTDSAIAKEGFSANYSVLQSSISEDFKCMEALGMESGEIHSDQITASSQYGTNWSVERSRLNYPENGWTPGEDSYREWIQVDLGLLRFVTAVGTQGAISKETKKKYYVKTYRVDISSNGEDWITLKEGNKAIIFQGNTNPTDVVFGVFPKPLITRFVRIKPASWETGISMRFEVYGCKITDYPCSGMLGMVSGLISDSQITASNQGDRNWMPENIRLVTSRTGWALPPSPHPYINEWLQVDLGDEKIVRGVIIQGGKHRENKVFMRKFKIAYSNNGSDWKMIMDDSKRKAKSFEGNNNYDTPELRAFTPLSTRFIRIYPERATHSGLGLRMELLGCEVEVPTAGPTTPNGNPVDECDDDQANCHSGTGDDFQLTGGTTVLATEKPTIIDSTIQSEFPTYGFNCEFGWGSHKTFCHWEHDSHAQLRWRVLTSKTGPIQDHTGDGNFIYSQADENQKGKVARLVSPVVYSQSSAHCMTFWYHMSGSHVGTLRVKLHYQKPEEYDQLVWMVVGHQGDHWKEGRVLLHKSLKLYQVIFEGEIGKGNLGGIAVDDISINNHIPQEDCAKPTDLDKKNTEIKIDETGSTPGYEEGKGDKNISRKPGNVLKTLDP

Binder: {Oregon Green (5-isomer)}-GTKPPR-OH (also called OG-TKPPR; OG-TKPPR monomer) [BRU-239, Oregon Green (5-isomer)-GTKPPR-OH]
IC50 [1]: 30000 nM

Binder: TKPPR-OH (also called BRU-95; TKPPR-OH) [TKPPR (L-threonyl-L-lysyl-L-prolyl-L-prolyl-L-arginine), free monomeric peptide]
IC50 [1]: 43000 nM | IC50 [2]: 80000 nM

Second part, the binder after the results:

IC50 [1]: 0.5 nM | IC50 [2]: 200 nM
B1: VEGF165 (ligand, UniProt P15692-4 27-191, looked up)
chain: APMAEGGGQNHHEVVKFMDVYQRSYCHPIETLVDIFQEYPDEIEYIFKPSCVPLMRCGGCCNDEGLECVPTEESNITMQIMRIKPHQGQHIGEMSFLQHNKCECRPKKDRARQENPCGPCSERRKHLFVQDPQTCKCSCKNTDSRCKARQLELNERTCRCDKPRR
modifications: 125I label on the radioligand form
notes: Labelled and unlabelled forms and the different suppliers are kept as one molecule; also called unlabeled VEGF165

IC50 [1]: 130 nM | Kd [3]: 25 to 50 nM
B2: TKPPR tetramer BRU-326, OG-(TKPPR)4 (peptide)
peptide: TKPPR-OH
modifications: not fully specified (N-terminus); printed as OG-(TKPPR)4; also: tetramer: four TKPPR chains joined via branched tetra-acid scaffold
notes: free C-terminal Arg on each arm; also called tetrameric TKPPR

IC50 [1]: 3000 nM
B3: TKPPR dimer BRU-317, OG-(TKPPR)2 (peptide)
peptide: TKPPR
modifications: not fully specified (N-terminus); printed as OG-(TKPPR)2; also: dimer on branched scaffold with one Oregon Green label
